Data reported in US20210340530A1 (INTELLIA THERAPEUTICS, published 2021).
One block for each binder: values may come before it.

Legend:
[1] = biological target: T1, … (VLD) WT1 peptide pulsed on target cells (HLA-02.01 positive T2 cell line; OCI-AML3); experiment: cell-based or functional assay
[2] = biological target: T2, … (RMF) WT1 peptide pulsed on target cells (HLA-02.01 positive T2 cell line; OCI-AML3); experiment: cell-based or functional assay
[3] = biological target: T1, … (VLD) WT1 peptide pulsed on target …; experiment: cell-based or functional assay; remark: listed apart in the source
[4] = biological target: T1, … (VLD) WT1 peptide pulsed on target …; experiment: cell-based or functional assay; remark: listed apart in the source
[5] = biological target: T1, … (VLD) WT1 peptide pulsed on target …; experiment: cell-based or functional assay; remark: listed apart in the source
[6] = biological target: T2, … (RMF) WT1 peptide pulsed on target …; experiment: cell-based or functional assay; remark: listed apart in the source
[7] = biological target: T1, … (VLD) WT1 peptide pulsed on target …; experiment: cell-based or functional assay; remark: listed apart in the source
[8] = biological target: T2, … (RMF) WT1 peptide pulsed on target …; experiment: cell-based or functional assay; remark: listed apart in the source
[9] = biological target: T3, VLD-Tetramer (pMHC tetramer with WT1 peptide …); experiment: flow cytometry, VLD-Tetramer staining of engineered T cells; TRAC RNP only
T3 construct: Staining reagent; also called VLD (Wilms' tumor antigen) tetramer; TCR specific pMHC tetramer
Method: (§1) Four to 12 days after RNP nucleofection, edited T cells (200 ul/200,000 cells) were collected in a 96 well round bottom plate and spun down at 500 g for 5 minutes. Cells were then resuspended in an antibody mixture containing a combination of antibodies targeting CD3, CD4, CD8, CD45RO, CD45RA, CD27, CCR7, CD62L, and/or the TCR specific pMHC tetramer or TCR specific Vbeta chain antibody. The mixture was incubated for 45 minutes at room temperature in the dark. Samples were spun down at 500 g for 5 minutes, cell pellets collected, and resuspended in 1:10,000 DAPI (Biolegend—#422801) in FACS buffer. Flow cytometry was then performed using the cytoflex according to the manufacturer's instructions.
(§2) T cells were evaluated with additional engineered TCRs for the impact of endogenous beta chains on pairing of both the inserted alpha chain and inserted beta chain. The experiment was performed as described herein except tetramer staining was used to measure MFI and the AAV inserts in Table 31 were used for transduction.

[10] = biological target: T3, VLD-Tetramer (pMHC tetramer with WT1 …); experiment: flow cytometry, VLD-Tetramer staining of engineered T cells; TRAC + TRBC RNP
Method: as §1, §2

Caspase 3/7 integrated intensity; TRAC only; 0 nM VLD; T2 [1]: 9040
Caspase 3/7 integrated intensity; TRAC only; 0.005 nM VLD; T2 [1]: 9180
Caspase 3/7 integrated intensity; TRAC only; 0.05 nM VLD; T2 [1]: 16900
Caspase 3/7 integrated intensity; TRAC only; 0.5 nM VLD; T2 [1]: 38800
Caspase 3/7 integrated intensity; TRAC only; 5 nM VLD; T2 [1]: 137000
Caspase 3/7 integrated intensity; TRAC only; 50 nM VLD; T2 [1]: 207000
Caspase 3/7 integrated intensity; TRAC only; 500 nM VLD; T2 [1]: 233000
Caspase 3/7 integrated intensity; TRAC/TRBC; 0 nM VLD; T2 [1]: 381000
Caspase 3/7 integrated intensity; TRAC/TRBC; 0.005 nM VLD; T2 [1]: 374000
Caspase 3/7 integrated intensity; TRAC/TRBC; 0.05 nM VLD; T2 [1]: 1.13e+06
Caspase 3/7 integrated intensity; TRAC/TRBC; 0.5 nM VLD; T2 [1]: 1.17e+06
Caspase 3/7 integrated intensity; TRAC/TRBC; 5 nM VLD; T2 [1]: 1.33e+06
Caspase 3/7 integrated intensity; TRAC/TRBC; 50 nM VLD; T2 [1]: 1.2e+06
Caspase 3/7 integrated intensity; TRAC/TRBC; 500 nM VLD; T2 [1]: 1.57e+06
Caspase 3/7 integrated intensity; TRAC only; 500 nM RMF; T2 [2]: 7340
Caspase 3/7 integrated intensity; TRAC/TRBC; 500 nM RMF; T2 [2]: 280000
IL2 release; TRAC only; 0 nM VLD; T2 [3]: 2.26 pg/mL
IL2 release; TRAC only; 0.005 nM VLD; T2 [3]: 2250 pg/mL
IL2 release; TRAC only; 0.05 nM VLD; T2 [3]: 2050 pg/mL
IL2 release; TRAC only; 0.5 nM VLD; T2 [3]: 2010 pg/mL
IL2 release; TRAC only; 5 nM VLD; T2 [3]: 4270 pg/mL
IL2 release; TRAC only; 50 nM VLD; T2 [3]: 7060 pg/mL
IL2 release; TRAC only; 500 nM VLD; T2 [3]: 8380 pg/mL
IL2 release; TRAC/TRBC; 0 nM VLD; T2 [3]: 314 pg/mL
IL2 release; TRAC/TRBC; 0.005 nM VLD; T2 [3]: 304 pg/mL
IL2 release; TRAC/TRBC; 0.05 nM VLD; T2 [3]: 227 pg/mL
IL2 release; TRAC/TRBC; 0.5 nM VLD; T2 [3]: 200 pg/mL
IL2 release; TRAC/TRBC; 5 nM VLD; T2 [3]: 494 pg/mL
IL2 release; TRAC/TRBC; 50 nM VLD; T2 [3]: 1180 pg/mL
IL2 release; TRAC/TRBC; 500 nM VLD; T2 [3]: 1510 pg/mL
IFN-gamma release; TRAC/TRBC; 50 nM VLD; T2 [4]: 40200
IFN-gamma release; TRAC/TRBC; 500 nM VLD; T2 [4]: 47600
IFN-gamma release; only TRAC; 50 nM VLD; T2 [4]: 28100
IFN-gamma release; only TRAC; 500 nM VLD; T2 [4]: 31500
% CD4+ TNFa+ IFNg+; TRAC/TRBC; 0 nM VLD; T2 [5]: 1.1%
% CD4+ TNFa+ IFNg+; TRAC/TRBC; 0.005 nM VLD; T2 [5]: 1.6%
% CD4+ TNFa+ IFNg+; TRAC/TRBC; 0.05 nM VLD; T2 [5]: 1.2%
% CD4+ TNFa+ IFNg+; TRAC/TRBC; 0.5 nM VLD; T2 [5]: 1.8%
% CD4+ TNFa+ IFNg+; TRAC/TRBC; 5 nM VLD; T2 [5]: 11.1%
% CD4+ TNFa+ IFNg+; TRAC/TRBC; 50 nM VLD; T2 [5]: 25.1%
% CD8+ TNFa+ IFNg+; TRAC/TRBC; 0 nM VLD; T2 [5]: 9.4%
% CD8+ TNFa+ IFNg+; TRAC/TRBC; 0.005 nM VLD; T2 [5]: 21%
% CD8+ TNFa+ IFNg+; TRAC/TRBC; 0.05 nM VLD; T2 [5]: 53%
% CD8+ TNFa+ IFNg+; TRAC/TRBC; 0.5 nM VLD; T2 [5]: 74.3%
% CD8+ TNFa+ IFNg+; TRAC/TRBC; 5 nM VLD; T2 [5]: 79.8%
% CD8+ TNFa+ IFNg+; TRAC/TRBC; 50 nM VLD; T2 [5]: 81.3%
% CD4+ TNFa+ IFNg+; TRAC/TRBC; 50 nM RMF; T2 [6]: 1.6%
% CD8+ TNFa+ IFNg+; TRAC/TRBC; 50 nM RMF; T2 [6]: 10%
% CD4+ CD107a+; TRAC/TRBC; 0 nM VLD; T2 [7]: 4.45%
% CD4+ CD107a+; TRAC/TRBC; 0.005 nM VLD; T2 [7]: 4.64%
% CD4+ CD107a+; TRAC/TRBC; 0.05 nM VLD; T2 [7]: 4.68%
% CD4+ CD107a+; TRAC/TRBC; 0.5 nM VLD; T2 [7]: 4.23%
% CD4+ CD107a+; TRAC/TRBC; 5 nM VLD; T2 [7]: 11.8%
% CD4+ CD107a+; TRAC/TRBC; 50 nM VLD; T2 [7]: 21.1%
% CD8+ CD107a+; TRAC/TRBC; 0 nM VLD; T2 [7]: 21.9%
% CD8+ CD107a+; TRAC/TRBC; 0.005 nM VLD; T2 [7]: 37.3%
% CD8+ CD107a+; TRAC/TRBC; 0.05 nM VLD; T2 [7]: 64.1%
% CD8+ CD107a+; TRAC/TRBC; 0.5 nM VLD; T2 [7]: 73%
% CD8+ CD107a+; TRAC/TRBC; 5 nM VLD; T2 [7]: 75.8%
% CD8+ CD107a+; TRAC/TRBC; 50 nM VLD; T2 [7]: 76.2%
% CD4+ CD107a+; TRAC/TRBC; 50 nM RMF; T2 [8]: 4.3%
% CD8+ CD107a+; TRAC/TRBC; 50 nM RMF; T2 [8]: 22.1%
Mean % Tetramer+ (CD4+) [9]: 7.6%
Mean % Tetramer+ (CD8+) [9]: 12.7%
Mean Tetramer MFI (CD4+) [9]: 10100 MFI
Mean Tetramer MFI (CD8+) [9]: 21900 MFI
Mean % Tetramer+ (CD4+) [10]: 48%
Mean % Tetramer+ (CD8+) [10]: 51.2%
Mean Tetramer MFI (CD4+) [10]: 11300 MFI
Mean Tetramer MFI (CD8+) [10]: 23700 MFI
B1: TCR-A (WT1-specific T-cell receptor) (TCR)
TCR alpha: SQQPVQSPQAVILREGEDAVINCSSSKALYSVHWYRQKHGEAPVFLMILLKGGEQKGHEKISASFNEKKQQSSLYLTASQLSYSGTYFCGTAWINDYKLSFGAGTTVTVRANIQNPDPAVYQLRDSKSSDKSVCLFTDFDSQTNVSQSKDSDVYITDKTVLDMRSMDFKSNSAVAWSNKSDFACANAFNNSIIPEDTFFPSPESSCDVKLVEKSFETDTNLNFQNLSVIGFRILLLKVAGFNLLMTLRLWSS
TCR beta: DAGVIQSPRHEVTEMGQEVTLRCKPISGHDYLFWYRQTMMRGLELLIYFNNNVPIDDSGMPEDRFSAKMPNASFSTLKIQPSEPRDSAVYFCASRKTGGYSNQPQHFGDGTRLSILEDLKNVFPPEVAVFEPSEAEISHTQKATLVCLATGFYPDHVELSWWVNGKEVHSGVSTDPQPLKEQPALNDSRYCLSSRLRVSATFWQNPRNHFRCQVQFYGLSENDEWTQDRAKPVTQIVSAEAWGRADCGFTSESYQQGVLSATILYEILLGKATLYAVLVSALVLMAMVKRKDSRG
notes: P2A remnant on the beta chain is not described; also called AV11-TCR-A; TCR-A (no cys)

Mean % Tetramer+ (CD4+) [9]: 78.9%
Mean % Tetramer+ (CD8+) [9]: 61%
Mean Tetramer MFI (CD4+) [9]: 67300 MFI
Mean Tetramer MFI (CD8+) [9]: 50100 MFI
Mean % Tetramer+ (CD4+) [10]: 81.8%
Mean % Tetramer+ (CD8+) [10]: 76.6%
Mean Tetramer MFI (CD4+) [10]: 231000 MFI
Mean Tetramer MFI (CD8+) [10]: 172000 MFI
B2: TCR-F (WT1-specific T-cell receptor) (TCR, V domains shown)
V domain 1: AQKITQTQPGMFVQEKEAVTLDCTYDTSDPSYGLFWYKQPSSGEMIFLIYQGSYDQQNATEGRYSLNFQKARKSANLVISASQLGDSAMYFCAISGNTPLVFGKGTRLSVIA
V domain 2: AAGVIQSPRHLIKEKRETATLKCYPIPRHDTVYWYQQGPGQDPQFLISFYEKMQSDKGSIPDRFSAQQFSDYHSELNMSSLELGDSALYFCASSLRGGLEKLFFGSGTQLSVLE
notes: also called AV14-TCR-F
